US20240270825A1 (CENTIVAX, published 2024)
Substitutions are numbered along the chain they refer to.

T1: MERS Receptor Binding Domain (RBD) protein (Middle East Respiratory Syndrome (MERS) …, UniProt K9N5Q8 367-606)
T1 construct: also called Middle East Respiratory Syndrome (MERS) virus
T1 sequence: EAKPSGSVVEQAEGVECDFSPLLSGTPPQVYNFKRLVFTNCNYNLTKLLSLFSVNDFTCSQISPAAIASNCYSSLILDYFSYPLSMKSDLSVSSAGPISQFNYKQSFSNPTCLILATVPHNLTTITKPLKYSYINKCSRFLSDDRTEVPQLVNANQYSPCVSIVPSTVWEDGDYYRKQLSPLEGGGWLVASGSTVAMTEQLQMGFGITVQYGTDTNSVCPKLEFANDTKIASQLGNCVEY

B1: COVID19_P22_F04 (scFv, V domains shown)
VH: QVQLVQSGAEVKKPGSSVKVSCKASGGGFITYWIGWVRQAPGQGLEWMGIIYPGDGEARYSQKFQGRVTITADESTSTAYMELSSLRSEDTAVYYCAGGSGISTPMDVWGQGTLVTVSS
VL: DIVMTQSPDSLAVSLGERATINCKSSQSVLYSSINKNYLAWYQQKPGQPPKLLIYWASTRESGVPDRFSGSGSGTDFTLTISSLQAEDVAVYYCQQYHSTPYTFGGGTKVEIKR
B2: COVID19_P09_D06 (scFv, V domains shown)
VH: B1 VH with G27Y, G56S, A58T, S61A, S103Y, T104V
VL: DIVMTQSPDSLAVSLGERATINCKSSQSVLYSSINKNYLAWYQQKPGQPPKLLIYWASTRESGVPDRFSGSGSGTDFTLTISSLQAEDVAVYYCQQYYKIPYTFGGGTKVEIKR
B3: COVID19_P09_H09 (scFv, V domains shown)
VH: B1 VH with G28T, G35Y, Q65Y, G99S, S100G
VL: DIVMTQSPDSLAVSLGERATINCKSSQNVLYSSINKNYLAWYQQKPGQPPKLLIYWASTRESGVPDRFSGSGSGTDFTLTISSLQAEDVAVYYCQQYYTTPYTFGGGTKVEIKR
B4: COVID19_P10_C05 (scFv, V domains shown)
VH: B1 VH with G28T, G99S, S100G
VL: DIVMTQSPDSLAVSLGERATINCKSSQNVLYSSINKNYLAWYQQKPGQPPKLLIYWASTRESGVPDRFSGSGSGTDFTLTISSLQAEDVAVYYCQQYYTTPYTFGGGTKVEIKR
B5: COVID19_P22_B04 (scFv, V domains shown)
VH: B1 VH with G27Y, G56S, A58T, S61A, S100E
VL: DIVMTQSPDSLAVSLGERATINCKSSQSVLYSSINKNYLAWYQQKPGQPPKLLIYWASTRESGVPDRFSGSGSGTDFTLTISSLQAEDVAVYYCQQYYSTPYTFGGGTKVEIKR
B6: COVID19_P22_E06 (scFv, V domains shown)
VH: B1 VH with G56S, A58T, T104S, P105D
VL: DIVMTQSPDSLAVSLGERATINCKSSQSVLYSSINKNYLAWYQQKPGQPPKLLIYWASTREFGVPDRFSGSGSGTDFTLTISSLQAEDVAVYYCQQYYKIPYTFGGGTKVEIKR
B7: COVID19_P22_F11 (scFv, V domains shown)
VH: B1 VH with G35S, S103I, T104Q
VL: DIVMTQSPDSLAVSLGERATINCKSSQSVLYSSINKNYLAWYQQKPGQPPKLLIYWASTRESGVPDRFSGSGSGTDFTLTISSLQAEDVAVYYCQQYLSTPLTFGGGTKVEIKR
B8: COVID19_P22_G12 (scFv, V domains shown)
VH: B1 VH with G56S, A58T
VL: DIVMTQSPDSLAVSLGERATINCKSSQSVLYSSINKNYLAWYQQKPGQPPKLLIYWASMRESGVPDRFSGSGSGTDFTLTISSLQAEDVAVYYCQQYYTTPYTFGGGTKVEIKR
B9: COVID19_P21_H03 (scFv, V domains shown)
VH: QVQLVQSGAEVKKPGSSVKVSCKASGYTFTNYGINWVRQAPGQGLEWMGWMNPYSGNTGYAQKFQGRVTITADESTSTAYMELSSLRSEDTAVYYCAVLSGISTPMDVWGQGTLVTVSS
VL: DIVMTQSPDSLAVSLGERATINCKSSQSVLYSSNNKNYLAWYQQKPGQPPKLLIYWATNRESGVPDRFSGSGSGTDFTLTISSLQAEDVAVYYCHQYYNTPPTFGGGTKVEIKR
B10: COVID19_P09_G12 (scFv, V domains shown)
VH: B9 VH with T28P, N35S, Y54N, V98T
VL: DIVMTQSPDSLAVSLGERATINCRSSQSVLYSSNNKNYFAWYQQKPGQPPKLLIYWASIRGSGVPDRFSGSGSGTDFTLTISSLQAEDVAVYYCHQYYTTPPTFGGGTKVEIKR
B11: COVID19_P21_B02 (scFv, V domains shown)
VH: B9 VH with Y54N, V98A, L99V
VL: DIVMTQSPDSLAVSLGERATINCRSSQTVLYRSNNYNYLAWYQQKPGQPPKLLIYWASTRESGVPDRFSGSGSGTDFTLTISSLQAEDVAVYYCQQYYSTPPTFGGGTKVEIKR
B12: COVID19_P21_E04 (scFv, V domains shown)
VH: B9 VH with V37M, Y54N, V98G, L99G
VL: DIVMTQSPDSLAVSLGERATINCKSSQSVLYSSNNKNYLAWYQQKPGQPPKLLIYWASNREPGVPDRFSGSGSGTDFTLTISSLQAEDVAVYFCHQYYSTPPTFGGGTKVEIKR
B13: COVID19_P09_B09 (scFv, V domains shown)
VH: QVQLVQSGAEVKKPGSSVKVSCKASGYRFTDYHLHWVRQAPGQGLEWMGGIVPFSGTTNFAQKFQGRVTITADESTSTAYMELSSLRSEDTAVYYCAGGSGETTPMDVWGQGTLVTVSS
VL: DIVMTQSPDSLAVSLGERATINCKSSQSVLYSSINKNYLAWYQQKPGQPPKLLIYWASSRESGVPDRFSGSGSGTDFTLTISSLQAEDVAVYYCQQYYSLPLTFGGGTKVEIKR
B14: COVID19_P22_C09 (scFv, V domains shown)
VH: QVQLVQSGAEVKKPGSSVKVSCKASGYNFTDYHIQWVRQAPGQGLEWVGMIIPRHGGTAYAQRFQGRVTITADESTSTAYMELSSLRSEDTAVYYCAGGSGLTTPMDVWGQGTLVTVSS
VL: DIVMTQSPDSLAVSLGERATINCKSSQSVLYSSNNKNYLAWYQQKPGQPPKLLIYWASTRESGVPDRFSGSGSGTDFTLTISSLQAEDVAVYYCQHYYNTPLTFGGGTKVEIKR
B15: COVID19_P10_B10 (scFv, V domains shown)
VH: B14 VH with N28S, T30S, I34V, Q35H, R63K, L102I, T103S
VL: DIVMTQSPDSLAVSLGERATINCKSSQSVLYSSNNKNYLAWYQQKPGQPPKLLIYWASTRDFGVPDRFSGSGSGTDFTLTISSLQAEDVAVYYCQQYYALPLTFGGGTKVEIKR
B16: COVID19_P21_A08 (scFv, V domains shown)
VH: B1 VH with G28T, I50W, Y52N, G54N, D55S, E57G, A58T, R59N, S61A
VL: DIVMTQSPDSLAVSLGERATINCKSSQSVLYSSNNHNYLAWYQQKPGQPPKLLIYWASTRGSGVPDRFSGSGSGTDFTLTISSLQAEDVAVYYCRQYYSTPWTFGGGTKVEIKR
B17: COVID19_P09_C05 (scFv, V domains shown)
VH: QVQLVQSGAEVKKPGSSVKVSCKASGYSFSDYYIHWVRQAPGQGLEWMGWIDPNSGGTNYAQKFQGRVTITADESTSTAYMELSSLRSEDTAVYYCAGGSGISTPMDVWGQGTLVTVSS
VL: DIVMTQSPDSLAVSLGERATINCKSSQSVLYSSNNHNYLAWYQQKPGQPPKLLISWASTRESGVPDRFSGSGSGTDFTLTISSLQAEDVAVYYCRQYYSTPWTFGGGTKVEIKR
B18: COVID19_P10_D08 (scFv, V domains shown)
VH: QVQLVQSGAEVKKPGSSVKVSCKASGGTFNSHAISWVRQAPGQGLEWMGWINPNSGATNYAQKFQGRVTITADESTSTAYMELSSLRSEDTAVYYCAGGSGISTPVGVWGQGTLVTVSS
VL: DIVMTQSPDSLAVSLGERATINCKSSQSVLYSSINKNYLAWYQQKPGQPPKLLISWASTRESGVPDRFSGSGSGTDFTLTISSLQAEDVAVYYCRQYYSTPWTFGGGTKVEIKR
B19: COVID19_P10_G03 (scFv, V domains shown)
VH: B17 VH with Y27G, S28T, D31N, Y32S, Y33S, H35N, W50R, D52N
VL: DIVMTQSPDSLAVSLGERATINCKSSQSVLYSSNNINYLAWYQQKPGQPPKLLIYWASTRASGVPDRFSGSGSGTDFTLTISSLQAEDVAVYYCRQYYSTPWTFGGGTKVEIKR
B20: COVID19_P21_B01 (scFv, V domains shown)
VH: B17 VH with S28T, D31T, Y33W, H35G
VL: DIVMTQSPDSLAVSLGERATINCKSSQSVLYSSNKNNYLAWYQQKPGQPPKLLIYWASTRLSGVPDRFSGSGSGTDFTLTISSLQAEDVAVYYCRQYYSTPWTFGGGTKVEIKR
B21: COVID19_P21_H01 (scFv, V domains shown)
VH: B17 VH with S28G, D31T, Y33W, H35G, D52N
VL: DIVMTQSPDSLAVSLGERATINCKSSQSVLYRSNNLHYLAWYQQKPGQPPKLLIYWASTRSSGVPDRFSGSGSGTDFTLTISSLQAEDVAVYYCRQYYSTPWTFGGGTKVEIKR
B22: COVID19_P22_H10 (scFv, V domains shown)
VH: B17 VH with Y27G, S28G, D31T, Y33W, H35G, M48V, D52N, G57A, N59K
VL: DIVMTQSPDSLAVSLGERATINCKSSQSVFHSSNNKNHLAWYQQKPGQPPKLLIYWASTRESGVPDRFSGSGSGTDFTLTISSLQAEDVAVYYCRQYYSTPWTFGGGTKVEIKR
B23: COVID19_P09_B10 (scFv, V domains shown)
VH: B17 VH with S30T, Y33H, G49A, W50M, D52V, N54R, S55G, G57S, N59T
VL: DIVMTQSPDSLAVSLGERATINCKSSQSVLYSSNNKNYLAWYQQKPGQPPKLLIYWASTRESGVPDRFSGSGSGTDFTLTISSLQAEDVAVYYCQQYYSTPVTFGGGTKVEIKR
B24: COVID19_P10_A09 (scFv, V domains shown)
VH: B17 VH with S28T, S30T, I51M, D52N, G57N, N59G, K63N, P105A, M106W
VL: DIVMTQSPDSLAVSLGERATIRCTSSLSLQDRSNNKNYLTWYQQKPGQPPKLLIYWASTRESGVPDRFSGSGSGTDFTLTISSLQAEDVAVYYCQQHYSAPLTFGGGTKVEIKR
B25: COVID19_P21_B09 (scFv, V domains shown)
VH: B1 VH with G27Y, G28T, I30T, T31G, Y32H, W33Y, I34M, G35H, G56S
VL: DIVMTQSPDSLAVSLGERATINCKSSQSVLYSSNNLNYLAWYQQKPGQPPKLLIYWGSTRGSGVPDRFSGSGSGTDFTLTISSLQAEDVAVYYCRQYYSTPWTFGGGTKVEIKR
B26: COVID19_P09_G02 (scFv, V domains shown)
VH: QVQLVQSGAEVKKPGSSVKVSCKASGGTFSSYAISWVRQAPGQGLEWMGIIYPGDSTTNYSQKFQGRVTITADESTSTAYMELSSLRSEDTAVYYCAGHWGISTPMDVWGQGTLVTVSS
VL: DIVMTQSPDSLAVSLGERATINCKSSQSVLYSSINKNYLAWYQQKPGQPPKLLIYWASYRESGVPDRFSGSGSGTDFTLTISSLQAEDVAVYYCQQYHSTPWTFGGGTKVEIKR
B27: COVID19_P09_A09 (scFv, V domains shown)
VH: B26 VH with N59R, A97Y, G98S, H99G, W100S
VL: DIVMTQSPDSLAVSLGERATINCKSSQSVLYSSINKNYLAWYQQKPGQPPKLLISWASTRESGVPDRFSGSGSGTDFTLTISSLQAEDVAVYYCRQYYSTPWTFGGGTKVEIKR
B28: COVID19_P09_B07 (scFv, V domains shown)
VH: B26 VH with I50G, Y52I, G54T, D55L, S56G, T58A, S61A, H99S
VL: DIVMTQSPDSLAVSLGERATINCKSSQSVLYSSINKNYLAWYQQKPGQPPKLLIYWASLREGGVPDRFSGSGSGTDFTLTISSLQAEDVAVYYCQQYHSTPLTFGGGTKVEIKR
B29: COVID19_P09_E05 (scFv, V domains shown)
VH: B26 VH with N59R, A97Y, G98S, H99G, W100S
VL: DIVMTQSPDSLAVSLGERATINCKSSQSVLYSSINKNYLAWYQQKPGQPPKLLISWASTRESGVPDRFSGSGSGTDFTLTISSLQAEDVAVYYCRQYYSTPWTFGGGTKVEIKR
B30: COVID19_P09_H08 (scFv, V domains shown)
VH: B26 VH with I50G, Y52I, G54I, D55F, S56G, S61A, H99E
VL: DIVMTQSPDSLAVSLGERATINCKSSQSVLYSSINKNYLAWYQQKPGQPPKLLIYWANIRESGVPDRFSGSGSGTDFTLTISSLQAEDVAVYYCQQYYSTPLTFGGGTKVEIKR
B31: COVID19_P10_B06 (scFv, V domains shown)
VH: B26 VH with N59R, A97Y, G98S, H99G, W100S
VL: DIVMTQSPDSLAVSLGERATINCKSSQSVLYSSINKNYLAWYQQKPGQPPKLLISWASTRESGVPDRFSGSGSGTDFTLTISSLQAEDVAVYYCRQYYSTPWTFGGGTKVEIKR

How the values were obtained:
[1] = biological target: T2, SARS-CoV-1 Receptor Binding Domain (RBD) protein (SARS-CoV-1, UniProt P59594 306-527); assay: SPR Carterra LSA, scFv captured via anti-V5
T2 construct: also called SARS1

[2] = biological target: T1, MERS Receptor Binding Domain (RBD) …; assay: SPR Carterra LSA, scFv captured via anti-V5

Binder | binding result [1] | binding result [2]
B1 | no binding (tested: 300 nM) | no binding (tested: 300 nM)
B2 | no binding (tested: 300 nM) | no binding (tested: 300 nM)
B3 | no binding (tested: 300 nM) | no binding (tested: 300 nM)
B4 | no binding (tested: 300 nM) | no binding (tested: 300 nM)
B5 | no binding (tested: 300 nM) | no binding (tested: 300 nM)
B6 | no binding (tested: 300 nM) | no binding (tested: 300 nM)
B7 | no binding (tested: 300 nM) | no binding (tested: 300 nM)
B8 | no binding (tested: 300 nM) | no binding (tested: 300 nM)
B9 | no binding (tested: 300 nM) | no binding (tested: 300 nM)
B10 | no binding (tested: 300 nM) | no binding (tested: 300 nM)
B11 | no binding (tested: 300 nM) | no binding (tested: 300 nM)
B12 | no binding (tested: 300 nM) | no binding (tested: 300 nM)
B13 | no binding (tested: 300 nM) | no binding (tested: 300 nM)
B14 | no binding (tested: 300 nM) | no binding (tested: 300 nM)
B15 | no binding (tested: 300 nM) | no binding (tested: 300 nM)
B16 | no binding (tested: 300 nM) | no binding (tested: 300 nM)

Binder | binding result [1] | binding result [2]
B17 | no binding (tested: 300 nM) | no binding (tested: 300 nM)
B18 | no binding (tested: 300 nM) | no binding (tested: 300 nM)
B19 | no binding (tested: 300 nM) | no binding (tested: 300 nM)
B20 | no binding (tested: 300 nM) | no binding (tested: 300 nM)
B21 | no binding (tested: 300 nM) | no binding (tested: 300 nM)
B22 | no binding (tested: 300 nM) | no binding (tested: 300 nM)
B23 | no binding (tested: 300 nM) | no binding (tested: 300 nM)
B24 | no binding (tested: 300 nM) | no binding (tested: 300 nM)
B25 | no binding (tested: 300 nM) | no binding (tested: 300 nM)
B26 | no binding (tested: 300 nM) | no binding (tested: 300 nM)
B27 | no binding (tested: 300 nM) | no binding (tested: 300 nM)
B28 | no binding (tested: 300 nM) | no binding (tested: 300 nM)
B29 | no binding (tested: 300 nM) | no binding (tested: 300 nM)
B30 | no binding (tested: 300 nM) | no binding (tested: 300 nM)
B31 | no binding (tested: 300 nM) | no binding (tested: 300 nM)
